Tested on: Escherichia coli TOP10
Assay: shrunken log2 fold change of peptide-encoding DNA abundance (4.5 h post-induction vs induction); higher = less antimicrobial activity (less host growth inhibition)
Conditions: time post-induction: 4.5 h; library: site-saturation at positions 5, 18, 19, 20
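Also: peptides expressed intracellularly from a pBAD plasmid library in pooled LB shake-flask culture, induced with 0.3% L-arabinose, DNA abundance read by NGS, three biological replicates, DESeq2 with apeglm shrinkage.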

Sequence | shrunken log2 fold change
RRIRHRPPRLPRPRPRPTHCPRP | -0.000996
RRIRHRPPRLPRPRPRPTHMPRP | -0.065
RRIRHRPPRLPRPRPRPTLEPRP | 0.319
RRIRHRPPRLPRPRPRPTLRPRP | -0.0301
RRIRHRPPRLPRPRPRPTMKPRP | -0.585
RRIRHRPPRLPRPRPRPTPGPRP | 0.327
RRIRHRPPRLPRPRPRPTPMPRP | 0.0946
RRIRHRPPRLPRPRPRPTTVPRP | -0.0474
RRIRHRPPRLPRPRPRPTVDPRP | -0.0548
RRIRHRPPRLPRPRPRPTVFPRP | -0.251
RRIRHRPPRLPRPRPRPTVWPRP | 0.123
RRIRHRPPRLPRPRPRPTYAPRP | -0.127
RRIRHRPPRLPRPRPRPTYDPRP | -0.0607
RRIRHRPPRLPRPRPRPTYTPRP | -0.00607
RRIRHRPPRLPRPRPRPVCSPRP | -0.168
RRIRHRPPRLPRPRPRPVEAPRP | 0.0753
RRIRHRPPRLPRPRPRPVETPRP | 0.0401
RRIRHRPPRLPRPRPRPVHMPRP | -0.0408
RRIRHRPPRLPRPRPRPVHTPRP | -0.292
RRIRHRPPRLPRPRPRPVKTPRP | -0.164
RRIRHRPPRLPRPRPRPVLKPRP | -0.295
RRIRHRPPRLPRPRPRPVQCPRP | -0.00186

Sequence | shrunken log2 fold change
RRIRHRPPRLPRPRPRPVQEPRP | -0.0785
RRIRHRPPRLPRPRPRPVWLPRP | -0.0368
RRIRHRPPRLPRPRPRPWAMPRP | -0.00884
RRIRHRPPRLPRPRPRPWCMPRP | -0.0194
RRIRHRPPRLPRPRPRPWCSPRP | -0.348
RRIRHRPPRLPRPRPRPWDAPRP | -0.101
RRIRHRPPRLPRPRPRPWFHPRP | -0.525
RRIRHRPPRLPRPRPRPWGFPRP | -0.0192
RRIRHRPPRLPRPRPRPWHIPRP | -0.864
RRIRHRPPRLPRPRPRPWHQPRP | -0.0658
RRIRHRPPRLPRPRPRPWIEPRP | 0.0254
RRIRHRPPRLPRPRPRPWKSPRP | -0.0679
RRIRHRPPRLPRPRPRPWQRPRP | -0.1
RRIRHRPPRLPRPRPRPWQTPRP | 0.266
RRIRHRPPRLPRPRPRPWSGPRP | -0.17
RRIRHRPPRLPRPRPRPWVQPRP | 0.0187
RRIRHRPPRLPRPRPRPWVSPRP | -0.683
RRIRHRPPRLPRPRPRPWWPPRP | -0.0995
RRIRHRPPRLPRPRPRPWWVPRP | -0.136
RRIRHRPPRLPRPRPRPYAKPRP | -0.0134
RRIRHRPPRLPRPRPRPYDDPRP | -0.00822
RRIRHRPPRLPRPRPRPYEEPRP | -0.431

Sequence | shrunken log2 fold change
RRIRHRPPRLPRPRPRPYEWPRP | -0.0335
RRIRHRPPRLPRPRPRPYFEPRP | -0.76
RRIRHRPPRLPRPRPRPYGAPRP | -0.48
RRIRHRPPRLPRPRPRPYHKPRP | -0.412
RRIRHRPPRLPRPRPRPYIRPRP | -0.0464
RRIRHRPPRLPRPRPRPYKYPRP | -0.128
RRIRHRPPRLPRPRPRPYMKPRP | -0.541
RRIRHRPPRLPRPRPRPYNDPRP | -0.0648
RRIRHRPPRLPRPRPRPYNSPRP | 0.0224
RRIRHRPPRLPRPRPRPYPLPRP | -0.641
RRIRHRPPRLPRPRPRPYQAPRP | -0.00987
RRIRHRPPRLPRPRPRPYQNPRP | 0.0439
RRIRHRPPRLPRPRPRPYQPPRP | -0.216
RRIRHRPPRLPRPRPRPYQTPRP | -0.112
RRIRHRPPRLPRPRPRPYTHPRP | -1.46
RRIRHRPPRLPRPRPRPYVTPRP | -0.182
RRIRHRPPRLPRPRPRPYWLPRP | -0.85
RRIRHRPPRLPRPRPRPYYEPRP | 0.0317
RRIRHRPPRLPRPRPRPYYPPRP | -0.228
RRIRIRPPRLPRPRPRPAAGPRP | 0.0506
RRIRIRPPRLPRPRPRPAARPRP | 0.278
RRIRIRPPRLPRPRPRPACFPRP | 0.199

Sequence | shrunken log2 fold change
RRIRIRPPRLPRPRPRPADRPRP | -0.123
RRIRIRPPRLPRPRPRPAEKPRP | -0.213
RRIRIRPPRLPRPRPRPAFCPRP | 0.167
RRIRIRPPRLPRPRPRPAFRPRP | 2.17
RRIRIRPPRLPRPRPRPAHVPRP | -0.0796
RRIRIRPPRLPRPRPRPAKVPRP | -0.224
RRIRIRPPRLPRPRPRPALAPRP | 0.202
RRIRIRPPRLPRPRPRPAMKPRP | -0.0563
RRIRIRPPRLPRPRPRPANDPRP | -0.135
RRIRIRPPRLPRPRPRPANNPRP | -0.449
RRIRIRPPRLPRPRPRPANSPRP | -0.204
RRIRIRPPRLPRPRPRPAPEPRP | 1.9
RRIRIRPPRLPRPRPRPAPHPRP | -0.0179
RRIRIRPPRLPRPRPRPARGPRP | 0.624
RRIRIRPPRLPRPRPRPARMPRP | 0.223
RRIRIRPPRLPRPRPRPARWPRP | 0.412
RRIRIRPPRLPRPRPRPATHPRP | -0.165
RRIRIRPPRLPRPRPRPATQPRP | 0.129
RRIRIRPPRLPRPRPRPAWMPRP | 0.0797
RRIRIRPPRLPRPRPRPAYEPRP | -0.277
RRIRIRPPRLPRPRPRPAYVPRP | -0.354
RRIRIRPPRLPRPRPRPCAPPRP | -0.506

Sequence | shrunken log2 fold change
RRIRIRPPRLPRPRPRPCCEPRP | -0.731
RRIRIRPPRLPRPRPRPCCPPRP | -0.168
RRIRIRPPRLPRPRPRPCDWPRP | 0.00175
RRIRIRPPRLPRPRPRPCECPRP | 0.0112
RRIRIRPPRLPRPRPRPCFQPRP | -0.391
RRIRIRPPRLPRPRPRPCGIPRP | -0.222
RRIRIRPPRLPRPRPRPCHAPRP | -0.618
RRIRIRPPRLPRPRPRPCHMPRP | -0.188
RRIRIRPPRLPRPRPRPCKGPRP | 0.00355
RRIRIRPPRLPRPRPRPCKQPRP | -0.0506
RRIRIRPPRLPRPRPRPCLLPRP | -0.495
RRIRIRPPRLPRPRPRPCLQPRP | -0.0932
RRIRIRPPRLPRPRPRPCMQPRP | -0.0295
RRIRIRPPRLPRPRPRPCMSPRP | -0.347
RRIRIRPPRLPRPRPRPCPHPRP | -0.143
RRIRIRPPRLPRPRPRPCPPPRP | -0.328
RRIRIRPPRLPRPRPRPCQFPRP | -0.395
RRIRIRPPRLPRPRPRPCQYPRP | -1.06
RRIRIRPPRLPRPRPRPCRGPRP | 0.0305
RRIRIRPPRLPRPRPRPCRHPRP | -0.159
RRIRIRPPRLPRPRPRPCRMPRP | -0.186

From the supplement of paper PMC9112550, “Optimization of the antimicrobial peptide Bac7 by deep mutational scanning” (BMC Biology, 2022)
